B1: CALM iso3 487-…-501 L490A; L494A; L497A; L501A (peptide)
chain: SDDADSSAANAVGNA
B2: CALM iso3 487-…-501 D488A; D489A; L490A; D491A; L494A; L497A; L501A (peptide)
chain: SAAAASSAANAVGNA
B3: CALM iso3 487-…-501 D488A; D489A; D491A (peptide)
chain: SAALASSLANLVGNL
B4: AP180 Site 2 peptide 882-…-896 D885A; L887A; D889A; L890A; I892A; D894A; F895A; L896A (peptide)
chain: PAKAPAAAANAKAAA
B5: CALM iso3 C-terminus peptide 596-…-610 I607A; F609A; M610A (peptide)
chain: PNPFGPVSGAQAQAA
B6: CALM iso3 490-…-504 L490A; L494A; L497A; L501A; I503A (peptide)
chain: ADSSAANAVGNAGAG
B7: AP180 Site 2 peptide 882-…-896 D885A; D889A; D894A (peptide)
chain: PAKAPLAALNIKAFL
B8: CALM iso3 490-…-504 D491A (peptide)
chain: LASSLANLVGNLGIG
B9: CALM iso3 490-…-504 L490A; D491A; L494A; L497A; L501A; I503A (peptide)
chain: AASSAANAVGNAGAG
B10: AP180 Site 2 peptide 882-…-896 L887A; L890A; I892A; F895A; L896A (peptide)
chain: PAKDPAADANAKDAA

The binders below were run against clathrin purified from bovine brain, P49951 (assay: peptide array overlay assay). Settings: chain shown with the change, n = 1, parent: est. 0.15, read off a plot.
clathrin purified from bovine brain, P49951, sequence (P49951 2-1675, chain 1 of 3): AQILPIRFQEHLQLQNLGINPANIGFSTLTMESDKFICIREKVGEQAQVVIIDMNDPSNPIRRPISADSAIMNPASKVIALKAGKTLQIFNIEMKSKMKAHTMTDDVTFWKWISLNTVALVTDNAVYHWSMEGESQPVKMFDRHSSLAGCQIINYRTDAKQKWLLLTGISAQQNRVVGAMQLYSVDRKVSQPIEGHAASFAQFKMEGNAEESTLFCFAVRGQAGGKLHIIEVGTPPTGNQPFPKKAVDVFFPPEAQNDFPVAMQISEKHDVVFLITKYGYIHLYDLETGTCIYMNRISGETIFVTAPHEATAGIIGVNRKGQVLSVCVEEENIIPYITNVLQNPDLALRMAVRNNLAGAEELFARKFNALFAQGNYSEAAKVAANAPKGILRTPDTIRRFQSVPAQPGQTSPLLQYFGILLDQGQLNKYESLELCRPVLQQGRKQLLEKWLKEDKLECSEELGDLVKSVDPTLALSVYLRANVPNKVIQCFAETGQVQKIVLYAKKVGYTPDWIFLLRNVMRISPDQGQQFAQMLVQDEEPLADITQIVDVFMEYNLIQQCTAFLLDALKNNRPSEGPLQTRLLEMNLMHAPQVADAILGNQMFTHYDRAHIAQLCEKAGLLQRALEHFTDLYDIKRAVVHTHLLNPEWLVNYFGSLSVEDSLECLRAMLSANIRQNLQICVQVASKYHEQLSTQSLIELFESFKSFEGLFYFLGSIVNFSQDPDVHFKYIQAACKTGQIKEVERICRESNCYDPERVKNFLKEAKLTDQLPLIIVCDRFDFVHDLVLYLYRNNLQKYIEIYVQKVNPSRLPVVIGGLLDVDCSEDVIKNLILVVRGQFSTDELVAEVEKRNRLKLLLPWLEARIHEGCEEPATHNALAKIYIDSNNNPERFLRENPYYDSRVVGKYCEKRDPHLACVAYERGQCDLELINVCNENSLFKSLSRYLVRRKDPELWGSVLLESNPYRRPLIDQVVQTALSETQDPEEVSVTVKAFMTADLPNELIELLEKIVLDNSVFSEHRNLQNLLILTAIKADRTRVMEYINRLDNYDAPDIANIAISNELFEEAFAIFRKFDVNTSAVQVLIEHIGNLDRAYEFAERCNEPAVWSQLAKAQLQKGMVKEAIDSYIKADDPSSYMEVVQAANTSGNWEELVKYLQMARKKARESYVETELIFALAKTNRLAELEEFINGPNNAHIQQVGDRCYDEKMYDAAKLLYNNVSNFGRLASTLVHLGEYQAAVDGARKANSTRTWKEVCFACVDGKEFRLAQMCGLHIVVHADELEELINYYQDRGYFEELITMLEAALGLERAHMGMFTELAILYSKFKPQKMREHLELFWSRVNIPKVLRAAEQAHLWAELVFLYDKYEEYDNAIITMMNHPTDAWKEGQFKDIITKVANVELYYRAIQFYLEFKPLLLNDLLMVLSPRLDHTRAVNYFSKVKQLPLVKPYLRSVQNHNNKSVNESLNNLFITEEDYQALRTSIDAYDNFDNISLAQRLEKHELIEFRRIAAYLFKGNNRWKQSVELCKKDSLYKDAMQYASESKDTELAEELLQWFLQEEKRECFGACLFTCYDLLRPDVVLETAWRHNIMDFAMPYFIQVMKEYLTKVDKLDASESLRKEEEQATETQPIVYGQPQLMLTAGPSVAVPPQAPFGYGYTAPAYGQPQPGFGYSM
clathrin purified from bovine brain, P49951, sequence (chain, as listed by the source, chain 2 of 3): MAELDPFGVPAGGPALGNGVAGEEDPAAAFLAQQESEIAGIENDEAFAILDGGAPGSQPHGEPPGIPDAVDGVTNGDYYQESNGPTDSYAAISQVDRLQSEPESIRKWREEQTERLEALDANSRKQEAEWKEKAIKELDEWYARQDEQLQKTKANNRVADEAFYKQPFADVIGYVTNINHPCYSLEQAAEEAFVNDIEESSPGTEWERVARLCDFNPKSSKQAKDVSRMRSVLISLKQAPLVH
clathrin purified from bovine brain, P49951, sequence (chain, as listed by the source, chain 3 of 3): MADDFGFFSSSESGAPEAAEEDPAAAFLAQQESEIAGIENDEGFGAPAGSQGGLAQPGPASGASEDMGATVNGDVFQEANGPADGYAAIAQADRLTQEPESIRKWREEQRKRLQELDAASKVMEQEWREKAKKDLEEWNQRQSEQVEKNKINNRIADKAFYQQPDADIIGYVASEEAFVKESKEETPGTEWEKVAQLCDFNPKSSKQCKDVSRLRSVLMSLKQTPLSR

Binder	other: relative clathrin binding (intensity divided by that of 15mer E)
B1	0
B2	0
B3	0.35

Same assay, conditions: chain shown with the change, n = 1, parent: est. 1.0, read off a plot

Binder	ratio to parent
B4	0
B5	0
B6	0
B7	0.12
B8	1
B9	0
B10	0

From PMC5004861
